Results reported in article PMC10303918.

Target: recombinant human CA125 (rhCA125) (human) (UniProt Q8WXI7)

## recombinant human mesothelin Fc fusion (hrMSLN-Fc) (from UniProt Q13421 296-598)
  adhesion of GFP-MSLN transfected HEK 293 T cells on an OVCAR-3 (MSLN+, MUC16+) monolayer in the presence of 1 uM Nb A1; percent of adhesion blocked: > 90%
